Results published in paper PMC11358422.

Columns and labels:
Test in all cases: ELISA
[1] = tested on: gluten (gliadin) (wheat); settings: wheat flour suspension; 5' biotin; ELISA: suspension coated in 100 mM NaHCO3 pH 9.6, 5% CSA block, aptamer in Base Pair Aptamer Folding Buffer, washes 0.02% Tween-20 in PBS; microscopy: aptamer …
[2] = target: hemoglobin (UniProt P69905+P68871); settings: 5' biotin, ELISA: suspension coated in 100 mM NaHCO3 pH 9.6, 5% CSA block, aptamer in Base Pair Aptamer Folding Buffer, washes 0.02% Tween-20 in PBS, microscopy: aptamer …
[3] = target: gelatin (collagen) (bovine skin) (UniProt P02453+P02465); settings: gelatin suspension; 5' biotin; ELISA: suspension coated in 100 mM NaHCO3 pH 9.6, 5% CSA block, aptamer in Base Pair Aptamer Folding Buffer, washes 0.02% Tween-20 in PBS; microscopy: aptamer …
[4] = tested on: parvalbumin (trout ('fish traut')); settings: fish trout suspension; 5' biotin; ELISA: suspension coated in 100 mM NaHCO3 pH 9.6, 5% CSA block, aptamer in Base Pair Aptamer Folding Buffer, washes 0.02% Tween-20 in PBS; microscopy: aptamer …
[5] = target: T1, beta-casein / beta-casomorphin-7 (UniProt P02666); settings: raw milk; 5' biotin; ELISA: suspension coated in 100 mM NaHCO3 pH 9.6, 5% CSA block, aptamer in Base Pair Aptamer Folding Buffer, washes 0.02% Tween-20 in PBS; microscopy: aptamer …
T1 sequence: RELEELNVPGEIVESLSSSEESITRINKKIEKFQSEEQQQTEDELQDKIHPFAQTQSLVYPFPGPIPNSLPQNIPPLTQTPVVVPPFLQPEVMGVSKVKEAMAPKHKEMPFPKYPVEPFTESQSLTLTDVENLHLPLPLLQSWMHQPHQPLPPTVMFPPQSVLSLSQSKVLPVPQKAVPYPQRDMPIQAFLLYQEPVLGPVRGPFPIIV

[6] = target: T2, beta-lactoglobulin (UniProt P02754); settings: raw milk; 5' biotin; ELISA: suspension coated in 100 mM NaHCO3 pH 9.6, 5% CSA block, aptamer in Base Pair Aptamer Folding Buffer, washes 0.02% Tween-20 in PBS; microscopy: aptamer …
T2 sequence: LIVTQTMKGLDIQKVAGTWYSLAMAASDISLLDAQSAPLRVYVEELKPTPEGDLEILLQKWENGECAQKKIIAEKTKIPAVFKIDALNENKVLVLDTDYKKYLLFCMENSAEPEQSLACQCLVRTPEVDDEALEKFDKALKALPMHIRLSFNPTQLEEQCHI

Chain of hemoglobin (P69905 2-142, chain 1 of 2): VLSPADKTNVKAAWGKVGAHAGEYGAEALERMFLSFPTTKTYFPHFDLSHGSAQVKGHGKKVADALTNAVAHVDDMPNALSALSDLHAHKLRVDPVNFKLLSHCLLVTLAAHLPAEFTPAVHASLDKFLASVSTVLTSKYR
Chain of hemoglobin (P68871 2-147, chain 2 of 2): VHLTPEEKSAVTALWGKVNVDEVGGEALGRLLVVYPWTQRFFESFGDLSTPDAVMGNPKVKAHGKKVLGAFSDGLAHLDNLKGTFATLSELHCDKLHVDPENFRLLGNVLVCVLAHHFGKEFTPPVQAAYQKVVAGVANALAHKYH
Chain of gelatin (collagen) (bovine skin) (P02453 whole entry, chain 1 of 2): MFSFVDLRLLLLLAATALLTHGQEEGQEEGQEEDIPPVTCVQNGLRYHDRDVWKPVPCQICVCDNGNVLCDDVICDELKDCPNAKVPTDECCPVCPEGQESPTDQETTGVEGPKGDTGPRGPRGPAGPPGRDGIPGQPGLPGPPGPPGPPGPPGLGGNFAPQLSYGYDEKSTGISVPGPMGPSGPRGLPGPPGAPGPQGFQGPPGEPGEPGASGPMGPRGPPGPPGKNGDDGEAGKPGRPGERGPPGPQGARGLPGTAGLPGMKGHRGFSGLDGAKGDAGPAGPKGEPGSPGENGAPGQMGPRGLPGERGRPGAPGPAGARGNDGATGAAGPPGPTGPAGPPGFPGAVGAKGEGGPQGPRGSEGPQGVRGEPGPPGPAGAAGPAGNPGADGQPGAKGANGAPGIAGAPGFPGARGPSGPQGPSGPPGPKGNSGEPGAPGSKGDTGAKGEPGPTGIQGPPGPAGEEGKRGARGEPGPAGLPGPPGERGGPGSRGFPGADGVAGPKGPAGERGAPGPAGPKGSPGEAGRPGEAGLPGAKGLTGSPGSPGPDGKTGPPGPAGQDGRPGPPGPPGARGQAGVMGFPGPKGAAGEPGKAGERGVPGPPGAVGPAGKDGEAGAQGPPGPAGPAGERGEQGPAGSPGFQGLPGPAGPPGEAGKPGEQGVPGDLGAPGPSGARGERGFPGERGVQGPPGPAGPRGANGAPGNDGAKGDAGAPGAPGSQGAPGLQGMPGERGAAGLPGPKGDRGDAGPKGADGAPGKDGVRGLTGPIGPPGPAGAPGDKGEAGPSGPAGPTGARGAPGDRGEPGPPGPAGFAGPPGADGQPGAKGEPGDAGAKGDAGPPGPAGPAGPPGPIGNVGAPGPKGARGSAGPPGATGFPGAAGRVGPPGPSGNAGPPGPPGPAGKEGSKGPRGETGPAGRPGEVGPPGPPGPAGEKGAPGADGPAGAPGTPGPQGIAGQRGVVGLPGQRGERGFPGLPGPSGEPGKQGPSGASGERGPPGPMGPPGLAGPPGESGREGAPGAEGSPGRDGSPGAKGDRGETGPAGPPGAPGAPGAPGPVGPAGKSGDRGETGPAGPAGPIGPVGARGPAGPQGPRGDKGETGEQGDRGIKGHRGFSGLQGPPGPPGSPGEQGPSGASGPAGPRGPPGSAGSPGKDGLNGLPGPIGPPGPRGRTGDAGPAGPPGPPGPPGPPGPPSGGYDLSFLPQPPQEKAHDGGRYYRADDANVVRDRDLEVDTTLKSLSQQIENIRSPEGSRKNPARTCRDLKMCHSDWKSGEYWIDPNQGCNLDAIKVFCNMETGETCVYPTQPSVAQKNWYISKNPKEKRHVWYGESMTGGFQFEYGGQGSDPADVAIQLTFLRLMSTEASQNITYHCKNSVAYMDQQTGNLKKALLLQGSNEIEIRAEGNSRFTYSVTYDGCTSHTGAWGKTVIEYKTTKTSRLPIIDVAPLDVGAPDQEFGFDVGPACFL
Chain of gelatin (collagen) (bovine skin) (P02465 whole entry, chain 2 of 2): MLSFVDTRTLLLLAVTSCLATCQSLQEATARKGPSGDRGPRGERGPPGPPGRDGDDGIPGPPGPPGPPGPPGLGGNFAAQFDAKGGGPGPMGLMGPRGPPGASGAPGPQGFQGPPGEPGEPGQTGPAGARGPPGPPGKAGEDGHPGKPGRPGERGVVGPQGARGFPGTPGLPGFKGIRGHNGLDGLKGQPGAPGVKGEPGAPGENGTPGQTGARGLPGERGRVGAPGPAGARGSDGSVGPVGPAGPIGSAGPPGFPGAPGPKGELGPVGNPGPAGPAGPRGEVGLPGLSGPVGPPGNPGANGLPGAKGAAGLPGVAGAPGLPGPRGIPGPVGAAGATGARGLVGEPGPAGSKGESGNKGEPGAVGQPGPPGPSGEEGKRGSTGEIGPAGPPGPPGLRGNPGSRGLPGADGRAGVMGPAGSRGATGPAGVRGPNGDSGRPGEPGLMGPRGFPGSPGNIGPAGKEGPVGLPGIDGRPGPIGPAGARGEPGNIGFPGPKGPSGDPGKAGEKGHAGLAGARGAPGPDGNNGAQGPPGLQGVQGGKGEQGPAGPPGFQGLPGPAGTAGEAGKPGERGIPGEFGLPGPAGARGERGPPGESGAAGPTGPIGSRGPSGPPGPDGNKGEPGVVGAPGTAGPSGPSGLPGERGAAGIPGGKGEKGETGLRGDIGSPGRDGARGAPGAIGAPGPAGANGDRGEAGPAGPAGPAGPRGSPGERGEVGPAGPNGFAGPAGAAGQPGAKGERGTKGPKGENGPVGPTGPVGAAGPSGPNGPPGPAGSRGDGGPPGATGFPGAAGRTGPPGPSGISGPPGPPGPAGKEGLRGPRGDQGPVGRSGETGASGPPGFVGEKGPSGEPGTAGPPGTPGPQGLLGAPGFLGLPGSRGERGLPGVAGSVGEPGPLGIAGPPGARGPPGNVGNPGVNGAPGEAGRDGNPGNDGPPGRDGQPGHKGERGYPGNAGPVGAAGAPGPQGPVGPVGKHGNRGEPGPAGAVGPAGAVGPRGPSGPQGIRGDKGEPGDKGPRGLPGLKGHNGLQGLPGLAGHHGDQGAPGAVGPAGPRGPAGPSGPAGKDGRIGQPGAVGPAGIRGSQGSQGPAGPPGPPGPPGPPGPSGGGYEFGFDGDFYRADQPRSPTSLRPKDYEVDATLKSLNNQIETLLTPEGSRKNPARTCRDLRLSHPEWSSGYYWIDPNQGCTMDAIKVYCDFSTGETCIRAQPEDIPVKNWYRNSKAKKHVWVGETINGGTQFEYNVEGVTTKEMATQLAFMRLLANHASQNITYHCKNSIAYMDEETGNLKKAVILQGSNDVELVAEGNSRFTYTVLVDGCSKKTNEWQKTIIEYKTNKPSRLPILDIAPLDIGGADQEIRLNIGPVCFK

Question: “CTAGGCGAAATATAGCTACAACTGTCTGAAGGCACCCAAT [Gli 1]” was tested. Which binding signal [1] did it give?
Answer: 0.577 OD405

Question: Which binding signal [2] does the source give for “GGCAGGAAGACAAACACCAGGTGAGGGAGACGACGCGAGTGTTAGATGGTAGCTGTTGGTCTGTGGTGCTGT [Hb]” here?
Answer: 0.388 OD405

Question: How did the binding signal [3] turn out when “ATCCGTCACACCTGCTCTAGACGAATATTGTATCCTCATTAGATCAAAAACGGGTGGTGTTGGCTCCCGTAT [CTx 2R (CTx 2R-2h)]” was run?
Answer: 0.615 OD405

Question: For “CCAGTCTCCCGTTTACCGCGCCTACACATGTCTGAATGCC [Gli 4]”, which binding signal [1] is on record?
Answer: 0.519 OD405

Question: For “TTTTTGGTTGACGGCAGTCGGCGGTATGCGCATATCGTGTTGGTA [D1]”, which binding signal [3] is on record?
Answer: 0.4 OD405

Question: With “TTTTTTTTGCCAAAGGAGGCGAGAGATAAAAGATTGCGAATCCATTCG [Par1]” as the sequence, how does the binding signal [4] read?
Answer: 0.412 OD405

Question: With “TTAGCGAGCTGCACACACAATGGACTCGTCATACCGTGCTGTTT [HA]” as the sequence, how does the binding signal [2] read?
Answer: 0.471 OD405

Question: Which binding signal ([2]; signal at MilliQ control level) does the source give for “ACGCACACCAGAGACAAGTAGCCCCCCAAACGCG [G15 T1]” here?
Answer: 0.015 OD405

Question: “ATCCGTCACACCTGCTCTATACACATTGTGTTTACTCCCAGTTTTTTAGACTTATGGTGTTGGCTCCCGTAT [seqU5]” was tested. Which binding signal [5] did it give?
Answer: 0.51 OD405

Question: How did the binding signal [6] turn out when “CGACGATCGGACCGCAGTACCCACCCACCAGCCCCAACATCATGCCCATCCGTGTGTG [BLG14]” was run?
Answer: 0.394 OD405
